According to patent US20180327803A1:

Experiments:
[1] = target: human serum-derived IgG polyclonal antibody (#I4506; Sigma-Aldrich) (human); experiment: scFv-immobilized HiTrap NHS column
[2] = target: human IgG1 antibody (#I5154; Sigma-Aldrich) (human); experiment: SPR, single cycle kinetics, IgG1 chip

amount of IgG adsorbed to the column and eluted [1]: 5.3 mg
percent of supplied IgG adsorbed to the column and eluted [1]: 53%
Kd [2]: 2.1 nM
koff [2]: 4.3e-05 s⁻¹
kon [2]: 21000 M⁻¹ s⁻¹
B1: R3-26 rabbit-derived single-chain antibody-His (scFv)
scFv: QEQLVESGGGLVKPGGTLTLTCTVSGIDLSSYAMSWVRQVPGKGLEWIGIIGSGGGTAYANWAKGRFTISKTSSTTVDLKMTSLTTEDTATYFCATDYGIYGYAYGHLWGPGTLVTVTSGGGGSGGGGSGGGGSELVMTQTASPVSAAVGGTVTIKCQASQSISTALAWYQQRPGQPPKLLIYDASTLASGVSSRFKGSGSGTEFTLTISDLECADAATYYCQTYFGSDTDNAFGEGTEVEITGSHHHHHH
